Experimental data from paper PMC5452035, “Structural insight into recognition of phosphorylated threonine‐4 of RNA polymerase II C‐terminal domain by Rtt103p” (EMBO Reports, 2017).
Where a chain is given by its changes, count along the chain named. Non-standard residues stand in square brackets, D forms with d. No end group written: not given here. pT = C[C@@H](OP(=O)(O)O)[C@H](N)C(=O)O; pS = N[C@@H](COP(=O)(O)O)C(=O)O; FAM = 5,6-carboxyfluorescein

How the values were obtained:
Assay in all cases: fluorescence polarisation; fluorescence anisotropy; Rtt103p CID titrated into 10 nM N-terminally FAM-labelled CTD peptide; 10°C; 35 mM KH2PO4, 100 mM KCl, pH 6.8; 1:1 model with non-specific binding (DynaFit)
Conditions in all cases: both partners purified
[1] = target: T1, Rtt103p CID Arg108Asn mutant (yeast, UniProt Q05543 3-131, Arg108Asn)
T1 sequence (looked up): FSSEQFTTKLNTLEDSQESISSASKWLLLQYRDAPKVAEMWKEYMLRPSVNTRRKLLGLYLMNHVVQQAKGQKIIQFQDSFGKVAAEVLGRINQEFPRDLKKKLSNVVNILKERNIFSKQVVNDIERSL

[2] = target: T2, Rtt103p CID Arg116Glu mutant (yeast, UniProt Q05543 3-131, Arg116Glu)
T2 sequence (looked up): T1 sequence (looked up) with N106R, R114E

[3] = target: T3, Rtt103p CID Lys72Glu mutant (yeast, UniProt Q05543 3-131, Lys72Glu)
T3 sequence (looked up): T1 sequence (looked up) with K70E, N106R

[4] = target: T4, Rtt103p CTD-interacting domain (CID) (3-131-6xHIS) (yeast, UniProt Q05543 3-131)
T4 construct: Used unlabelled for fluorescence anisotropy and the 13C-HSQC titration, 15N-labelled for the TROSY titration and 15N,13C-labelled for the structure; also called Rtt103p CID; Rtt103 CID
T4 sequence (looked up): T1 sequence (looked up) with N106R

B1: FAM-PSY(pS)PTSPSYSPTSPS (peptide)
peptide: {FAM}-PSY[pS]PTSPSYSPTSPS
notes: consensus heptad repeats (Tyr1-Ser2-Pro3-Thr4-Ser5-Pro6-Ser7) of the C-terminal domain of the largest subunit of RNA polymerase II (Rpb1); residues named by heptad position and repeat letter (P6a ... S7c); also called pSer2-CTD; FAM-pSer2 CTD; source: synthetic peptide (JPT, Berlin, or Clonestar, Brno)
With B1 the Kd [1] was 44 µM.

B2: FAM-PSYSP(pT)SPSYSPTSPS (peptide)
peptide: {FAM}-PSYSP[pT]SPSYSPTSPS
notes: consensus heptad repeats of the C-terminal domain of the largest subunit of RNA polymerase II (Rpb1); residues named by heptad position and repeat letter (P6a ... S7c); also called pThr4-CTD; FAM-pThr4 CTD; source: synthetic peptide (JPT, Berlin, or Clonestar, Brno)
For B2, the Kd [1] was 38 µM, the Kd [2] was 107 µM and the Kd [3] was 54 µM.

B3: FAM-PSYSP(pT)SPSYS (peptide)
peptide: {FAM}-PSYSP[pT]SPSYS
notes: consensus heptad repeats of the C-terminal domain of the largest subunit of RNA polymerase II (Rpb1); residues named by heptad position and repeat letter (P6a ... S2c); source: synthetic peptide (JPT, Berlin, or Clonestar, Brno)
B3 was tested, and the Kd [4] was 18 µM.
